These results are taken from publication PMC8219737, “Direct activation of the proton channel by albumin leads to human sperm capacitation and sustained release of inflammatory mediators by neutrophils” (Nature Communications, 2021).

This series concerns the molecule itself. Briefly: smTIRF single-molecule photobleaching (subunit counting); hHv1-G199L-TFP particles at the surface of live HEK293T cells; bleaching steps of TFP counted.

B1: hHv1-G199L-TFP (natural protein, human, UniProt Q96D96-1 1-273, looked up)
chain: MATWDEKAVTRRAKVAPAERMSKFLRHFTVVGDDYHAWNINYKKWENEEEEEEEEQPPPTPVSGEEGRAAAPDVAPAPGPAPRAPLDFRGMLRKLFSSHRFQVIIICLVVLDALLVLAELILDLKIIQPDKNNYAAMVFHYMSITILVFFMMEIIFKLFVFRLEFFHHKFEILDAVVVVVSFILDIVLLFQEHQFEALLLLILLRLWRVARIINGIIISVKTRSERQLLRLKQMNVQLAAKIQHLEFSCSEKEQEIERLNKLLRQHGLLGEVN
notes: also used for the patch-clamp (functional) rows of hHv1-G199L; source: HEK293T, transfected, on live cells; not shown: teal fluorescent protein (TFP, via a 13-residue linker), C-terminal, kept
As to B1, the “stoichiometry N” value was found to be 2 subunits per particle.
